# Measurements taken from the RNAGym collection of RNA variant scans (doi:10.1021/acssynbio.7b00057).
# B1: Pistol ribozyme (parent)
# chain: GGGUCGUUGUUCCAUAAUCGCGUGGAUAUGGCACGCAAGUUUCUACCGGGCACCGUAAAUGUCCGACUGGAGCCGUUCGGGCGGCUAUAAACAGACCUCAGGCCCGAAGCGUGGCGGCACCUGCCGCCGGUGGUAAAAAAGAUCGGAAGAGCACACGUCU
# Variants of: B1
# Test: aptazyme ON/OFF ratio, guanine; higher = stronger switching; co-transcriptional cleavage with and without guanine
row,Variant,aptazyme ON/OFF ratio
1,GGGUCGAUCGUUUAUAAUCGCGUGGAUAUGGCACGCAAGUUUCUACCGGGCACCGUAAAUGUCCGACUGGAGCCGUUCGGGCGGCUAUAAACAGACCUCAGGCCCGAAGCGUGGCGGCACCUGCCGCCGGUGGUAAAAAAGAUCGGAAGAGCACACGUCU,1.56
2,GGGUCGAUCGUUGAUAAUCGCGUGGAUAUGGCACGCAAGUUUCUACCGGGCACCGUAAAUGUCCGACUGGAGCCGUUCGGGCGGCUAUAAACAGACCUCAGGCCCGAAGCGUGGCGGCACCUGCCGCCGGUGGUAAAAAAGAUCGGAAGAGCACACGUCU,1.11
3,GGGUCGAUCGUUAAUAAUCGCGUGGAUAUGGCACGCAAGUUUCUACCGGGCACCGUAAAUGUCCGACUGGAGCCGUUCGGGCGGCUAUAAACAGACCUCAGGCCCGAAGCGUGGCGGCACCUGCCGCCGGUGGUAAAAAAGAUCGGAAGAGCACACGUCU,1.06
4,GGGUCGAUCGAGAAUAAUCGCGUGGAUAUGGCACGCAAGUUUCUACCGGGCACCGUAAAUGUCCGACUGGAGCCGUUCGGGCGGCUAUAAACAGACCUCAGGCCCGAAGCGUGGCGGCACCUGCCGCCGGUGGUAAAAAAGAUCGGAAGAGCACACGUCU,1.07
5,GGGUCGAUCGAGUAUAAUCGCGUGGAUAUGGCACGCAAGUUUCUACCGGGCACCGUAAAUGUCCGACUGGAGCCGUUCGGGCGGCUAUAAACAGACCUCAGGCCCGAAGCGUGGCGGCACCUGCCGCCGGUGGUAAAAAAGAUCGGAAGAGCACACGUCU,1.06
6,GGGUCGAUCGAGGAUAAUCGCGUGGAUAUGGCACGCAAGUUUCUACCGGGCACCGUAAAUGUCCGACUGGAGCCGUUCGGGCGGCUAUAAACAGACCUCAGGCCCGAAGCGUGGCGGCACCUGCCGCCGGUGGUAAAAAAGAUCGGAAGAGCACACGUCU,1.21
7,GGGUCGAUCGUCUAUAAUCGCGUGGAUAUGGCACGCAAGUUUCUACCGGGCACCGUAAAUGUCCGACUGGAGCCGUUCGGGCGGCUAUAAACAGACCUCAGGCCCGAAGCGUGGCGGCACCUGCCGCCGGUGGUAAAAAAGAUCGGAAGAGCACACGUCU,1.33
8,GGGUCGAUCGUCAAUAAUCGCGUGGAUAUGGCACGCAAGUUUCUACCGGGCACCGUAAAUGUCCGACUGGAGCCGUUCGGGCGGCUAUAAACAGACCUCAGGCCCGAAGCGUGGCGGCACCUGCCGCCGGUGGUAAAAAAGAUCGGAAGAGCACACGUCU,1.15
9,GGGUCGAUCGUCGAUAAUCGCGUGGAUAUGGCACGCAAGUUUCUACCGGGCACCGUAAAUGUCCGACUGGAGCCGUUCGGGCGGCUAUAAACAGACCUCAGGCCCGAAGCGUGGCGGCACCUGCCGCCGGUGGUAAAAAAGAUCGGAAGAGCACACGUCU,1.14
10,GGGUCGAUCGAACAUAAUCGCGUGGAUAUGGCACGCAAGUUUCUACCGGGCACCGUAAAUGUCCGACUGGAGCCGUUCGGGCGGCUAUAAACAGACCUCAGGCCCGAAGCGUGGCGGCACCUGCCGCCGGUGGUAAAAAAGAUCGGAAGAGCACACGUCU,1.1
11,GGGUCGAUCGAGCAUAAUCGCGUGGAUAUGGCACGCAAGUUUCUACCGGGCACCGUAAAUGUCCGACUGGAGCCGUUCGGGCGGCUAUAAACAGACCUCAGGCCCGAAGCGUGGCGGCACCUGCCGCCGGUGGUAAAAAAGAUCGGAAGAGCACACGUCU,1.06
12,GGGUCGAUCGAUCAUAAUCGCGUGGAUAUGGCACGCAAGUUUCUACCGGGCACCGUAAAUGUCCGACUGGAGCCGUUCGGGCGGCUAUAAACAGACCUCAGGCCCGAAGCGUGGCGGCACCUGCCGCCGGUGGUAAAAAAGAUCGGAAGAGCACACGUCU,1.04
13,GGGUCGAUCGUCCAUAAUCGCGUGGAUAUGGCACGCAAGUUUCUACCGGGCACCGUAAAUGUCCGACUGGAGCCGUUCGGGCGGCUAUAAACAGACCUCAGGCCCGAAGCGUGGCGGCACCUGCCGCCGGUGGUAAAAAAGAUCGGAAGAGCACACGUCU,1.32
14,GGGUCGAUCGUGAAUAAUCGCGUGGAUAUGGCACGCAAGUUUCUACCGGGCACCGUAAAUGUCCGACUGGAGCCGUUCGGGCGGCUAUAAACAGACCUCAGGCCCGAAGCGUGGCGGCACCUGCCGCCGGUGGUAAAAAAGAUCGGAAGAGCACACGUCU,1.07
15,GGGUCGAUCGUGGAUAAUCGCGUGGAUAUGGCACGCAAGUUUCUACCGGGCACCGUAAAUGUCCGACUGGAGCCGUUCGGGCGGCUAUAAACAGACCUCAGGCCCGAAGCGUGGCGGCACCUGCCGCCGGUGGUAAAAAAGAUCGGAAGAGCACACGUCU,1.1
16,GGGUCGAUCGUGUAUAAUCGCGUGGAUAUGGCACGCAAGUUUCUACCGGGCACCGUAAAUGUCCGACUGGAGCCGUUCGGGCGGCUAUAAACAGACCUCAGGCCCGAAGCGUGGCGGCACCUGCCGCCGGUGGUAAAAAAGAUCGGAAGAGCACACGUCU,1.1
17,GGGUCGAUCGUAGAUAAUCGCGUGGAUAUGGCACGCAAGUUUCUACCGGGCACCGUAAAUGUCCGACUGGAGCCGUUCGGGCGGCUAUAAACAGACCUCAGGCCCGAAGCGUGGCGGCACCUGCCGCCGGUGGUAAAAAAGAUCGGAAGAGCACACGUCU,1.09
18,GGGUCGAUCGUAUAUAAUCGCGUGGAUAUGGCACGCAAGUUUCUACCGGGCACCGUAAAUGUCCGACUGGAGCCGUUCGGGCGGCUAUAAACAGACCUCAGGCCCGAAGCGUGGCGGCACCUGCCGCCGGUGGUAAAAAAGAUCGGAAGAGCACACGUCU,1.09

row,Variant,aptazyme ON/OFF ratio
1,GGGUCGAUCGUAAAUAAUCGCGUGGAUAUGGCACGCAAGUUUCUACCGGGCACCGUAAAUGUCCGACUGGAGCCGUUCGGGCGGCUAUAAACAGACCUCAGGCCCGAAGCGUGGCGGCACCUGCCGCCGGUGGUAAAAAAGAUCGGAAGAGCACACGUCU,1.08
2,GGGUCGAUCCGUGAUAAUCGCGUGGAUAUGGCACGCAAGUUUCUACCGGGCACCGUAAAUGUCCGACUGGAGCCGUUCGGGCGGCUAUAAACAGACCUCAGGCCCGAAGCGUGGCGGCACCUGCCGCCGGUGGUAAAAAAGAUCGGAAGAGCACACGUCU,1.04
3,GGGUCGAUCCGUUAUAAUCGCGUGGAUAUGGCACGCAAGUUUCUACCGGGCACCGUAAAUGUCCGACUGGAGCCGUUCGGGCGGCUAUAAACAGACCUCAGGCCCGAAGCGUGGCGGCACCUGCCGCCGGUGGUAAAAAAGAUCGGAAGAGCACACGUCU,1.06
4,GGGUCGAUCCGUAAUAAUCGCGUGGAUAUGGCACGCAAGUUUCUACCGGGCACCGUAAAUGUCCGACUGGAGCCGUUCGGGCGGCUAUAAACAGACCUCAGGCCCGAAGCGUGGCGGCACCUGCCGCCGGUGGUAAAAAAGAUCGGAAGAGCACACGUCU,1.04
5,GGGUCGAUCCGUCAUAAUCGCGUGGAUAUGGCACGCAAGUUUCUACCGGGCACCGUAAAUGUCCGACUGGAGCCGUUCGGGCGGCUAUAAACAGACCUCAGGCCCGAAGCGUGGCGGCACCUGCCGCCGGUGGUAAAAAAGAUCGGAAGAGCACACGUCU,1.06
6,GGGUCGAUCCGCUAUAAUCGCGUGGAUAUGGCACGCAAGUUUCUACCGGGCACCGUAAAUGUCCGACUGGAGCCGUUCGGGCGGCUAUAAACAGACCUCAGGCCCGAAGCGUGGCGGCACCUGCCGCCGGUGGUAAAAAAGAUCGGAAGAGCACACGUCU,1.08
7,GGGUCGAUCCGCAAUAAUCGCGUGGAUAUGGCACGCAAGUUUCUACCGGGCACCGUAAAUGUCCGACUGGAGCCGUUCGGGCGGCUAUAAACAGACCUCAGGCCCGAAGCGUGGCGGCACCUGCCGCCGGUGGUAAAAAAGAUCGGAAGAGCACACGUCU,1.06
8,GGGUCGAUCCGCGAUAAUCGCGUGGAUAUGGCACGCAAGUUUCUACCGGGCACCGUAAAUGUCCGACUGGAGCCGUUCGGGCGGCUAUAAACAGACCUCAGGCCCGAAGCGUGGCGGCACCUGCCGCCGGUGGUAAAAAAGAUCGGAAGAGCACACGUCU,1.08
9,GGGUCGAUCGACCAUAAUCGCGUGGAUAUGGCACGCAAGUUUCUACCGGGCACCGUAAAUGUCCGACUGGAGCCGUUCGGGCGGCUAUAAACAGACCUCAGGCCCGAAGCGUGGCGGCACCUGCCGCCGGUGGUAAAAAAGAUCGGAAGAGCACACGUCU,1.03
10,GGGUCGAUCGUACAUAAUCGCGUGGAUAUGGCACGCAAGUUUCUACCGGGCACCGUAAAUGUCCGACUGGAGCCGUUCGGGCGGCUAUAAACAGACCUCAGGCCCGAAGCGUGGCGGCACCUGCCGCCGGUGGUAAAAAAGAUCGGAAGAGCACACGUCU,1.09
11,GGGUCGAUCGUUCAUAAUCGCGUGGAUAUGGCACGCAAGUUUCUACCGGGCACCGUAAAUGUCCGACUGGAGCCGUUCGGGCGGCUAUAAACAGACCUCAGGCCCGAAGCGUGGCGGCACCUGCCGCCGGUGGUAAAAAAGAUCGGAAGAGCACACGUCU,1.2
12,GGGUCGAUCGUGCAUAAUCGCGUGGAUAUGGCACGCAAGUUUCUACCGGGCACCGUAAAUGUCCGACUGGAGCCGUUCGGGCGGCUAUAAACAGACCUCAGGCCCGAAGCGUGGCGGCACCUGCCGCCGGUGGUAAAAAAGAUCGGAAGAGCACACGUCU,1.11
13,GGGUCGAUCGAAUAUAAUCGCGUGGAUAUGGCACGCAAGUUUCUACCGGGCACCGUAAAUGUCCGACUGGAGCCGUUCGGGCGGCUAUAAACAGACCUCAGGCCCGAAGCGUGGCGGCACCUGCCGCCGGUGGUAAAAAAGAUCGGAAGAGCACACGUCU,1.07
14,GGGUCGAUCGAAAAUAAUCGCGUGGAUAUGGCACGCAAGUUUCUACCGGGCACCGUAAAUGUCCGACUGGAGCCGUUCGGGCGGCUAUAAACAGACCUCAGGCCCGAAGCGUGGCGGCACCUGCCGCCGGUGGUAAAAAAGAUCGGAAGAGCACACGUCU,1.07
15,GGGUCGAUCGAAGAUAAUCGCGUGGAUAUGGCACGCAAGUUUCUACCGGGCACCGUAAAUGUCCGACUGGAGCCGUUCGGGCGGCUAUAAACAGACCUCAGGCCCGAAGCGUGGCGGCACCUGCCGCCGGUGGUAAAAAAGAUCGGAAGAGCACACGUCU,1.08
16,GGGUCGAUCCGGAAUAAUCGCGUGGAUAUGGCACGCAAGUUUCUACCGGGCACCGUAAAUGUCCGACUGGAGCCGUUCGGGCGGCUAUAAACAGACCUCAGGCCCGAAGCGUGGCGGCACCUGCCGCCGGUGGUAAAAAAGAUCGGAAGAGCACACGUCU,1.07
17,GGGUCGAUCCGGUAUAAUCGCGUGGAUAUGGCACGCAAGUUUCUACCGGGCACCGUAAAUGUCCGACUGGAGCCGUUCGGGCGGCUAUAAACAGACCUCAGGCCCGAAGCGUGGCGGCACCUGCCGCCGGUGGUAAAAAAGAUCGGAAGAGCACACGUCU,1.05
18,GGGUCGAUCCGGGAUAAUCGCGUGGAUAUGGCACGCAAGUUUCUACCGGGCACCGUAAAUGUCCGACUGGAGCCGUUCGGGCGGCUAUAAACAGACCUCAGGCCCGAAGCGUGGCGGCACCUGCCGCCGGUGGUAAAAAAGAUCGGAAGAGCACACGUCU,1.17
